Key:
[1] = test system: HAdV-5/HAdV-19c chimeric viruses; experiment: FACS-based infection assay of virus chimeras at 100-fold lower moi; type: cell-based, human adenovirus; details: data not shown
Excerpt: We then combined the GYAR substitution with the PB substitution in a single construct (PB/GYAR).

Ad5.F35 = experiment: Sensitivity of Ad5.F35 to HD5; type: cell-based, human adenovirus; details: data not shown; compared with HAdV-5 and HAdV-35
HAdV species E = experiment: Infection assay (hexon staining), HAdV species E; type: cell-based, human adenovirus; details: 15 µM HD5, A549 cells, hexon staining at ~48 h, vs. no defensin
Experimental: To determine whether sensitivity to α-defensins is a general property of HAdVs, serotypes representative of HAdV species A–F were tested for infectivity in the presence of 15 µM HD5 or HNP1 (Figure 1). Wild type HAdVs rather than vectors were used for these studies, and infectivity was assessed by staining for hexon production. […] These studies indicate that sensitivity to α-defensins is species specific. In addition, particular HAdV serotypes are not equally sensitive to all defensins, indicating defensin sequence specificity as well.
Figure 1 Sensitivity to neutralization by alpha-defensins is AdV species specific. HAdVs were incubated with 15 µM HD5 (A) or HNP1 (B) and assessed for infectivity on A549 cells. Data are the mean of the percent infectivity compared to control cells infected with each virus in the absence of defensin for at least three independent experiments ± SD. The upper limit for quantification of this assay is 200%. […]
(§1) Prior to use in this assay, each virus stock was titrated on A549 cells. […] In parallel, wells were infected with two-fold serial dilutions of each virus to establish a standard curve for quantification with an upper limit of 200%. […] Total well fluorescence above background was quantified with ImageJ software. For each virus, samples were quantified by nonlinear regression against the standard curve using Prism software (GraphPad Software, Inc., La Jolla, CA).

HAdV-25p = experiment: Virus-defensin binding assay, HAdV-25p; parameters: species or system human adenovirus
Excerpt: Figure 2 HD5 binding to HAdV. A) HD5 binding to a representative defensin-sensitive serotype (HAdV-5) was quantified by an equilibrium-binding assay. Data are the mean of the number of HD5 molecules bound per virion at the indicated HD5 concentrations from at least three independent experiments ± SD. Binding curves were fitted using Prism software. B) Binding of HD5 to additional defensin-sensitive (HAdV-7p) and resistant (HAdV-19c, -25p, -51p) serotypes expressed as a percent of HD5 bound to HAdV-5. Data are the mean of two or three independent experiments ± SD.
We assessed HD5 binding to additional serotypes after incubation with 20 µM HD5 (Figure 2B). The sensitive serotype HAdV-7p bound 69.3±15.9% of the amount of HD5 bound to HAdV-5 in parallel samples; whereas, the corresponding values for the resistant serotypes HAdV-19c, -25p, and -51p were 32.5±7.5%, 3.3±5.8%, and 24.6±12.0%, respectively.
To measure HD5 binding to HAdV-5 and -51, HD5 was serially diluted in PBS and mixed with 5 µg purified virus. […] The other half of each sample was used to make a standard curve for quantification. […] Virus bands were quantified using ImageQuant NT software (GE Healthcare). […] The amount of HD5 in the centrifuged samples was then quantified against the standard curve using Prism software. […]

19cPB = experiment: Infection assay, 19cPB virus chimera; type: cell-based, human adenovirus; details: 5 µM and 10 µM HD5, A549 cells; at least three independent experiments; neutralized only at 10 µM
Excerpt: The availability of sensitive (e.g., HAdV-5) and resistant (e.g., HAdV-19c) serotypes provided a means to test this HD5 neutralization model by generating virus chimeras. Initially, virus chimeras were constructed by replacing the sequences for fiber, penton base, and hexon in the HAdV-5 genome with the corresponding sequences from HAdV-19c. Consistent with previous studies, [38], the virus chimera containing the HAdV-19c hexon is not viable; however, constructs containing the HAdV-19c fiber (19cF) or penton base (19cPB) are capable of replicating. […] In contrast, the 19cPB virus has an intermediate phenotype.
Figure 6 Neutralization determinants are located in fiber and penton base. A) Schematic of chimeric viruses. […] B) Each of the chimeric viruses was incubated with 5 µM (grey) or 10 µM (black) HD5 and assessed for infectivity on A549 cells. […] The upper limit for quantification of this assay is 200%.
as §1

[2] = ref [40], [44]; cited from earlier work
Excerpt: The extensive difference density attributable to HD5 in our cryoEM analysis of Ad5.F35+HD5 is consistent with our estimated stoichiometry. HD5 binding sites were found on all of the major proteins of the capsid. […] The accumulation of HD5 difference density was not equal among the four unique hexon positions in the asymmetric unit but rather was greatest on the peripentonal hexons. Since the possible binding sites presented by each hexon a ...

B1: HD5: human alpha-defensin; synthetic, obtained from Peptides International; three disulfide bonds (PDB 1ZMP) (peptide, UniProt Q01523 20-94, looked up)
Defensin alpha 5: ESLQERADEATTQKQSGEDNQDLAISFAGNGLSALRTSGSQARATCYCRTGRCATRESLSGVCEISGRLYRLCCR
modifications: Defensin-5
In the case of B1, the “sensitivity phenotype of chimeras in FACS-based assay” value [1] is reported as “Equivalent results”, the “sensitivity of Ad5.F35 to HD5” value (Ad5.F35) is reported as “comparable to that of HAdV-5 and HAdV-35” and the “sensitivity to neutralization (infectivity)” value (HAdV species E) is reported as “sensitive”. The “HD5 bound, percent of HD5 bound to HAdV-5” value (HAdV-25p; 20 µM HD5, mean of two or three independent experiments ± SD) was 3.3±5.8%, the “level of HD5 binding (in words)” value (HAdV-25p; HAdV-25p) was “only a low level of binding” and the “sensitivity to HD5 neutralization” value (19cPB) was “partially neutralized by HD5 but only at the higher concentration tested (10 µM)”. For the same molecule, the “concentration at which HD5 forms dimers and tetramers” value [2] was “below 5 µM”.
